We go through five substances from paper PMC4522657, “Identification of a DYRK1A Inhibitor that Induces Degradation of the Target Kinase using Co-chaperone CDC37 fused with Luciferase nanoKAZ” (Scientific Reports, 2015).

The target of one assay is HSP90β (nanoKAZ-HSP90β) (UniProt P08238). Put plainly: anti-FLAG plate capture, luciferase-fusion luminescence. As to conditions: reference: wild type.
Another assay has as its target CDC37 (CDC37-nanoKAZ) (UniProt Q16543). Described as above. As to conditions: reference: wild type.

With “DYRK1A (from UniProt Q13627) K188R kinase-dead (no autophosphorylation)”, the figures for the fold change in the assay with HSP90β (nanoKAZ-HSP90β) and with CDC37 (CDC37-nanoKAZ) were 10 and 17, respectively.

Turning to DYRK1A (from UniProt Q13627) Y111F, in the assay with CDC37 (CDC37-nanoKAZ) (sites Y111), the fold change came out at 1.4.

With “DYRK1A (from UniProt Q13627) Y319F/Y321F”, the fold change in the assay with HSP90β (nanoKAZ-HSP90β) (sites Y319,Y321) came to 3.8; with CDC37 (CDC37-nanoKAZ) (sites Y319,Y321) it was 8.

Substance DYRK1A (from UniProt Q13627) Y159F returned a fold change with CDC37 (CDC37-nanoKAZ) (sites Y159) of 8.4.

“DYRK1A (from UniProt Q13627) Y145F/Y147F” came in with a fold change with CDC37 (CDC37-nanoKAZ) (sites Y145,Y147) of 2.4.
